± gives the standard deviation of the averaged measurements.
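Note: PSI is a weighted mean of sequencing reads over stability bins, variants kept only with over 10 reads, mCherry proximal and sfGFP distal, peptide attached via GGGS linker.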

For the data set, the system named is Saccharomyces cerevisiae. Nature of the data set: protein stability index of tFT-peptide fusion (C-terminal peptide) (PSI (0-1 scale)); higher = more stable (slower turnover). As to conditions: genetic background: wild type; temperature: 30 C.
Turning to LETETKKPQNQK, the protein stability index was found to be 0.724 ± 0.11.
Sequence LFCLCYDVCVPS yielded a protein stability index of 0.662 ± 0.035.
Then LFCVSGSRPLTF, with 0.714 ± 0.034; and LFFLRFSHFFVG, with 0.605 ± 0.014; and LFFRVLDRLGEI, with 0.726 ± 0.021.
To LFGAIPRVEHAD belongs 0.718 ± 0.088; to LFGNPVLSYFVI, 0.5549 ± 0.0053.
To LFLARLSGHFGA belongs 0.728 ± 0.16; to LFLCSGWVACWW, 0.498 ± 0.013.
Regarding LFLGLLLMNDWL, the protein stability index was determined as 0.774 ± 0.096.
Then LFLLPPLLPLPP, with 0.7361 ± 0.00058.
To LFLPYLPPRPLL belongs 0.7642 ± 0.0064; to LFLTPTSPVAAL, 0.651 ± 0.065; to LFLVWSLGSGRN, 0.672 ± 0.098.
To LFPGSHHLSRFF belongs 0.7587 ± 0.005; to LFPIYFVCNYSA, 0.508 ± 0.0075; to LFPRFPPPAPPL, 0.723 ± 0.099.
As for LFPRPSILKGVP, the protein stability index turned out to be 0.657 ± 0.091.
Then LFPSSGTRLTPS, with 0.667 ± 0.027; and LFPVTAIACRPS, with 0.7266 ± 0.006.
To LFRPNWLPLSNN belongs 0.634 ± 0.018.
Then LFRPSPPRPLPP, with 0.651 ± 0.0071; and LFRRPSVVFLFV, with 0.496 ± 0.062; and LFSFCQGCISFC, with 0.715 ± 0.02.
Take LFSPPPPPIPSP: the protein stability index amounted to 0.73 ± 0.0078.
Then LFSRSSHGRFLT, with 0.624 ± 0.041; and LFSSPPSLPPPL, with 0.739 ± 0.036; and LFSVLLFFFFHL, with 0.522 ± 0.069.
To LGACGWVDWWGL belongs 0.774 ± 0.0083; to LGARGAGAPAPG, 0.7286 ± 0.0037; to LGCKGQLFWYIW, 0.6327 ± 0.003.
For LGCLHRLLGVRL, the protein stability index worked out at 0.752 ± 0.048.
Then LGCLRLVPSPPG, with 0.757 ± 0.1; and LGCVLGLLVFGG, with 0.601 ± 0.041.
In the case of LGFQSRTTRCCG, the protein stability index is 0.6685 ± 0.0014.
Take LGFRCLGRGPDH: the protein stability index was determined as 0.644 ± 0.033.
To LGFSDIMSSLVV belongs 0.801 ± 0.16; to LGGGCVRCVFMW, 0.637 ± 0.039.
For LGGGGLRSRGAG, the protein stability index worked out at 0.785 ± 0.21.
Then LGGGGRWVVPGA, with 0.722 ± 0.029; and LGGGPTGARPAM, with 0.782 ± 0.078; and LGIEFGVADVGL, with 0.786 ± 0.054.
To LGIRFPLSNELI belongs 0.867 ± 0.15; to LGKIYPFYSILL, 0.7038 ± 0.002.
Then LGLCSFGCERCH, with 0.704 ± 0.015.
LGLLGSLRTLSF had a protein stability index of 0.667 ± 0.14.
Then LGLSCTIFPIGI, with 0.679 ± 0.018.
To LGLYNRFSMFGS belongs 0.645 ± 0.026; to LGQAVGAVGVEV, 0.64 ± 0.072.
Then LGRFRLSRREGG, with 0.6706 ± 0.0043; and LGRPRRGGGVSG, with 0.6998 ± 0.0012; and LGRRGVVRVSPR, with 0.687 ± 0.052.
LGSNLVCFLCVS came in with a protein stability index of 0.566 ± 0.053.
To LGSRSGPLFPCV belongs 0.655 ± 0.015; to LGTGRGAEGVIG, 0.791 ± 0.071.
Then LGTILGWFSICT, with 0.59 ± 0.007; and LGVFAVGGVRLG, with 0.668 ± 0.008; and LGVGGLRSRGAG, with 0.74 ± 0.2.
Then LGVGGRWGVPGA, with 0.715 ± 0.04.
With LGWGRGGPLSGG, the protein stability index was 0.6937 ± 0.0018.
To LGWWGVWSWGRG belongs 0.655 ± 0.033; to LHDICADRSSIL, 0.739 ± 0.009.
Then LHFYASFPSPLV, with 0.669 ± 0.044; and LHGASLCVPPSP, with 0.5205 ± 0.0013.

Values taken from the supplement of paper PMC10724198.
